According to paper PMC2982890 (Biochemistry, 2010):

B1: nuclear coactivator binding domain (NCBD) of CBP (residues 2059–2117) (domain or fragment, mouse, UniProt P45481 2059-2117, looked up)
chain: PPRSISPSALQDLLRTLKSPSSPQQQQQVLNILKSNPQLMAAFIKQRTAKYVANQPGMQ

Legend:
[1] = target: p53(1–61), full-length transactivation domain (TAD) of human p53 (human, UniProt P04637 1-61); experiment: ITC + NMR titration
[2] = target: B1; experiment: ITC + NMR titration
[3] = target: B1; experiment: ITC

| binding result [1] | Binder | fold weaker binding than p53(1–61) [2] | Kd [3] | dH [3] |
| --- | --- | --- | --- | --- |
| binds | B1 | – | – | – |
| – | LSQETFSDLWKLLPE (peptide, UniProt P04637 14-28, looked up) [p53(14–28), isolated AD1 peptide] | ~170 fold | – | – |
| – | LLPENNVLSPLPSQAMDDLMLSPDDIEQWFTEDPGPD (domain or fragment, human, UniProt P04637 25-61, looked up) [p53(25–61)] | 2 to 3 fold | 5.4 ± 1.8 µM | -4.12 ± 0.46 kcal/mol |
